Laboratory results reported in patent publication US20220348970A1, “METHODS AND COMPOSITIONS FOR 3-HYDROXYPROPIONATE PRODUCTION” (The Regents of the University of California, priority 2017, published 2022).

Legend:
[1] = target: Actinobacillus succinogenes PCK (phosphoenolpyruvate carboxykinase), SEQ ID NO: 163 (Actinobacillus succinogenes, UniProt A6VKV4); experiment: Kinetics of PEPCK against PEP (carboxylation direction, malate dehydrogenase/NADH coupled); type: biochemical; settings: 100 mM PBS buffer (pH 6.5), 1.25 mM ADP, 50 mM KHCO3, 2 mM MnCl2
Chain of Actinobacillus succinogenes PCK (phosphoenolpyruvate carboxykinase), SEQ ID NO: 163 (A6VKV4 whole entry): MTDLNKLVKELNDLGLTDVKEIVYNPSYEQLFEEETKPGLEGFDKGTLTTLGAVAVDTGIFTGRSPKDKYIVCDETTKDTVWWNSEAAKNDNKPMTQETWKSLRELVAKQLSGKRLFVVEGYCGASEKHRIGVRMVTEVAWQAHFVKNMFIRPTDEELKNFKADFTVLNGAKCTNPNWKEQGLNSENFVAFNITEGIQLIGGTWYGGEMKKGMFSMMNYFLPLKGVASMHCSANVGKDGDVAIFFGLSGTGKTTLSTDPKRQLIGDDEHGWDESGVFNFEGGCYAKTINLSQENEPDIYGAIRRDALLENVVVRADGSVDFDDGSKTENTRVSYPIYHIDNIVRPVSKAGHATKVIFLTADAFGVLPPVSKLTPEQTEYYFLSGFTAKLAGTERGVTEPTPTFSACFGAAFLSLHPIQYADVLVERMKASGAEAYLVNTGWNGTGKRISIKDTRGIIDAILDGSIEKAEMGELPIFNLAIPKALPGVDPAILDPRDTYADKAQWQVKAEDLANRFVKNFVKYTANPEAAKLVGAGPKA
Description: (§1) 5 genes encoding candidate PEPCKs were synthesized and cloned into expression vectors. After obtaining solubly expressed proteins, they were used for activity characterization. Each enzyme was assayed in the phosphenolpyruvate carboxylation direction in a solution containing 100 mM PBS buffer (pH 6.5), 0.20 mM NADH, 1.25 mM ADP, 2.5 mM PEP, 50 mM KHCO3, 2 mM MnCl2, and 4 units malate dehydrogenase.

[2] = substrate: C=C(OP(=O)(O)O)C(=O)O; experiment: as above; type: biochemical, E. coli; settings: other: PEP, 100 mM PBS buffer (pH 6.5), 1.25 mM ADP, 50 mM KHCO3, 2 mM MnCl2
Description: as §1

[3] = substrate: O=C(O)CC(=O)C(=O)O; experiment: OAADC kinetics of A0A0J7KM68 on oxaloacetate; type: biochemical; settings: other: oxaloacetate, pH 7.2, 21° C.
Description: (§2) All substrates were dissolved in MilliQ H2O and the pH was adjusted to 7.2 as necessary. Activity for oxaloacetate, pyruvate, and 2-ketoisovalerate was measured at a 1 mM substrate concentration. The assay was performed in a 96-well half-area plate. Each reaction contained reaction buffer (100 mM HEPES, 100 mM NaCl, 10% glycerol, pH 7.2), ADH (Sigma-Aldrich, A7011, 100 U/mL for pyruvate, 600 U/mL for oxaloacetate, and 600 U/mL for 2-ketoisovalerate), and a final concentration of 0.5 mM NADPH, 0.1 mM TPP, and 1 mM MgSO4. A range of substrate concentrations (0.1 mM-5 mM) were uSEQ to perform steady-state kinetics measurement over a period of one hour. Absorbance readings were taken at one minute intervals at 340 nm at 21° C. for 60 minutes using the Synergy H1 spectrophotometer (Biotek). Kinetic parameters (ka and Ks1) were determined by fitting initial velocity versus substrate concentration data to the Michaelis-Menten equation.
(§3) A second round of genome mining was conducted as described in Example 1, except using the 4COK sequence as the input. Genes encoding candidate OAADCs were synthesized and expressed in E. coli for further characterization. OAADC activity was assayed as described in Example 1.

[4] = substrate: O=C(O)CC(=O)C(=O)O; experiment: OAADC kinetics of 5EUJ on oxaloacetate; type: biochemical; settings: other: oxaloacetate, pH 7.2, 21° C.
Description: as §2, §3

[5] = substrate: CC(=O)C(=O)O; experiment: Steady-state kinetics of 4COK decarboxylase on pyruvate and oxaloacetate (ADH/NADPH coupled, 340 nm); type: biochemical, Gluconacetobacter diazotrophicus; settings: other: pH 7.2, 21° C., 0.1 mM-5 mM substrate
Description: Overnight cultures of BLR cells suspended in a 2 mL volume were transformed with a pet29b+ plasmid (encoding polypeptides of interest with a C-terminal His-tag) and grown in Terrific Broth with 50 μg/ml kanamycin. Cultures were diluted 1:1.000 in 500 ml of Terrific Broth with 1 mM MgSO4, 1% glucose and 50 μg/ml antibiotic and then grown at 37° C. for 24 hours. Cultures were pelleted down at 4,700 RPM for 10 minutes and resuspended in auto-induction media (LB broth, 1 mM MgSO4, 0.1 mM TPP, 1×NPS and 1×5052) for induction at 18° C. for 20 hours. At the end of induction, cells were centrifuged, the supernatant was removed and cells were resuspended in 40 mL lysis buffer (100 mM HEPES, pH 7.5, 100 mM NaCl, 10% glycerol, 0.1 mM TPP, 1 mM MgSO4, 10 mM Imidazole, 1 mM TCEP) and 1 mM phenylmethylsulphonyl fluoride. The cell lysate suspension was sonicated for 2 min and followed by centrifugation at 4,700 RPM. The supernatant was loaded onto a gravity flow column with 500 uL Cobalt beads and was washed with 15 mL of wash buffer five times. Proteins were eluted with […] of elution buffer (100 mM HEPES, pH 7.5, 100 mM NaCl, 10% glycerol, 0.1 mM TPP, 1 mM MgSO4, 200 mM Imidazole and 1 mM TCEP). Protein concentrations were determined using a Synergy H1 spectrophotometer (Biotek) by measuring absorbance at 280 nm using calculated extinction coefficients.
All substrates were dissolved in MilliQ H2O and the pH was adjusted to 7.2 as necessary. Activity for oxaloacetate, pyruvate, and 2-ketoisovalerate was measured at a 1 mM substrate concentration. The assay was performed in a 96-well half-area plate. […] Absorbance readings were taken at one minute intervals at 340 nm at 21° C. for 60 minutes using the Synergy H1 spectrophotometer (Biotek). Kinetic parameters (ka and Ks1) were determined by fitting initial velocity versus substrate concentration data to the Michaelis-Menten equation. […]

[6] = substrate: NC(=O)c1ccc[n+]([C@@H]2O[C@H](COP(=O)([O-])OP(=O)(O)OC[C@H]3O[C@@H](n4cnc5c(N)ncnc54)[C@H](O)[C@@H]3O)[C@@H](O)[C@H]2O)c1; experiment: 3-HPDH activity towards 3-HP (reverse reaction) using NAD+; type: biochemical; settings: other: activity towards 3-HP, pH 7.2, 21° C.
Description: (§4) Candidate ADHs were expressed in E. coli, and soluble expression levels were analyzed. 3-HP dehydrogenase (3-HPDH) activity of each was tested based on the reverse reaction, from 3-HP to 3-oxopropanoate. The assay was performed in a 96-well half-area plate. Each reaction contained a final concentration of 1 mM NADP^+/NAD^+ in reaction buffer (100 mM Hepes, 100 mM NaCl, 10% glycerol, pH 7.2) and ADHs. A range of substrates from 0.1 mM-5 mM was used to perform steady-state kinetics measurement over a period of an hour. Absorbance readings were taken every 1 min at OD 340 at 21° C. for 60 min. using the Synergy™ H1 Hybrid Multi-Mode Microplate Reader (Biotek). Kinetic parameters (kcat and KM) were determined by fitting initial velocity versus substrate concentration data to the Michaelis-Menten equation.

[7] = substrate: NC(=O)c1ccc[n+]([C@@H]2O[C@H](COP(=O)([O-])OP(=O)(O)OC[C@H]3O[C@@H](n4cnc5c(N)ncnc54)[C@H](O)[C@@H]3O)[C@@H](O)[C@H]2O)c1; experiment: as above; type: biochemical, Metallosphaera sedula; settings: other: activity towards 3-HP, pH 7.2, 21° C.
Description: as §4

Molecule: C=C(OP(=O)(O)O)C(=O)O [PEP, phosphoenolpyruvate]
- Km [1]: 169 µM
- kcat [1]: 2.875 s⁻¹

B1: E. coli PCK (phosphoenolpyruvate carboxykinase, PCKA_Ecoli), SEQ ID NO: 162 (Escherichia coli K-12) (protein)
chain: MRVNNGLTPQELEAYGISDVHDIVYNPSYDLLYQEELDPSLTGYERGVLTNLGAVAVDTGIFTGRSPKDKYIVRDDTTRDTFWWADKGKGKNDNKPLSPETWQHLKGLVTRQLSGKRLFVVDAFCGANPDTRLSVRFITEVAWQAHFVKNMFIRPSDEELAGFKPDFIVMNGAKCTNPQWKEQGLNSENFVAFNLTERMQLIGGTWYGGEMKKGMFSMMNYLLPLKGIASMHCSANVGEKGDVAVFFGLSGTGKTTLSTDPKRRLIGDDEHGWDDDGVFNFEGGCYAKTIKLSKEAEPEIYNAIRRDALLENVTVREDGTIDFDDGSKTENTRVSYPIYHIDNIVKPVSKAGHATKVIFLTADAFGVLPPVSRLTADQTQYHFLSGFTAKLAGTERGITEPTPTFSACFGAAFLSLHPTQYAEVLVKRMQAAGAQAYLVNTGWNGTGKRISIKDTRAIIDAILNGSLDNAETFTLPMFNLAIPTELPGVDTKILDPRNTYASPEQWQEKAETLAKLFIDNFDKYTDTPAGAALVAAGPKL
- Km [2]: 190.5 µM
- kcat [2]: 3.42 s⁻¹
- kcat/Km [2]: 18000 M⁻¹ s⁻¹

B2: OAADC A0A0J7KM68_LASNI, SEQ ID NO: 145 (Lasius niger) (protein)
chain: MSYTVGQYLADRLVQIGLKDHFAIAGDYNLVLLDQFLKNKNWNQIYDCNELNCGFAAEGYARANGAAACVVTYTVGAISAMNSALAGAYAENLPVLCISGAPNCNDYGSGRILHHTIGKPEFTQQLDMVKHVTCAAESVVQASEAPAKIDHVIRTMLLEQRPAYIDIACNISGLECPRPGPIEDLLPQYAADNKSLTSAIDAIAKKIEASQKVTLYVGPKVRPGKAKEASVKLADALGCAVTVGPASMSFFPAKHPGFRGTYWGIVSTGDANKVVEEAETLIVLGPNWNDYATVGWKAWPKGPRVVTIDEKAAQVDGQVFSGLSMKALVEGLAKKVSKKPATAEGTKAPHFEYPVAKPDAKLTNAEMARQINAILDDNTTLHAETGDSWFNVKNMNWPNGLRIESEMQYGHIGWSIPSGFGGAIGSPERKHIIMCGDGSFQLTCQEVSQMIRYKLPVTIFLIDNHGYGIEIAIHDGPYNYIQNWNFTKLMEVFNGEGEECPYSHNKNGKSGLGLKATTPAELADAIKQAEANKEGPTLIQVVIDQDDCTKDLLTWGKEVAKTNARSPVVTDKAGGSG
- Km [3]: 2389 µM
- kcat [3]: 6.25 s⁻¹
- kcat/Km [3]: 2620 ± 224 M⁻¹ s⁻¹

B3: OAADC 5EUJ, SEQ ID NO: 146 (Zymobacter palmae) (protein)
chain: MYTVGMYLAERLAQIGLKHHFAVAGDYNLVLLDQLLLNKDMEQVYCCNELNCGFSAEGYARARGAAAAIVTFSVGAISAMNAIGGAYAENLPVILISGSPNTNDYGTGHILHHTIGTTDYNYQLEMVKHVTCAAESIVSAEEAPAKIDHVIRTALRERKPAYLEIACNVAGAECVRPGPINSLLRELEVDQTSVTAAVDAAVEWLQDRQNVVMLVGSKLRAAAAEKQAVALADRLGCAVTIMAAAKGFFPEDHPNFRGLYWGEVSSEGAQELVENADAILCLAPVFNDYATVGWNSWPKGDNVMVMDTDRVTFAGQSFEGLSLSTFAAALAEKAPSRPATTQGTQAPVLGIEAAEPNAPLTNDEMTRQIQSLITSDTTLTAETGDSWFNASRMPIPGGARVELEMQWGHIGWSVPSAFGNAVGSPERRHIMMVGDGSFQLTAQEVAQMIRYEIPVIIFLINNRGYVIEIAIHDGPYNYIKNWNYAGLIDVFNDEDGHGLGLKASTGAELEGAIKKALDNRRGPTLIECNIAQDDCTETLIAWGKRVAATNSRKPQAGGSG
- Km [4]: 6667 µM
- kcat [4]: 28.8 s⁻¹
- kcat/Km [4]: 4320 ± 321 M⁻¹ s⁻¹

B4: pyruvate decarboxylase from Gluconacetobacter diazotrophicus (4COK), SEQ ID NO: 1 (Gluconacetobacter diazotrophicus PA1 5) (protein)
chain: MTYTVGRYLADRLAQIGLKHHFAVAGDYNLVLLDQLLLNTDMQQIYCSNELNCGFSAEGYARANGAAAAIVTFSVGALSAFNALGGAYAENLPVILISGAPNANDHGTGHILHHTLGTTDYGYQLEMARHITCAAESIVAAEDAPAKIDHVIRTALREKKPAYLEIACNVAGAPCVRPGGIDALLSPPAPDEASLKAAVDAALAFIEQRGSVTMLVGSRIRAAGAQAQAVALADALGCAVTTMAAAKSFFPEDHPGYRGHYWGEVSSPGAQQAVEGADGVICLAPVFNDYATVGWSAWPKGDNVMLVERHAVTVGGVAYAGIDMRDFLTRLAAHTVRRDATARGGAYVTPQTPAAAPTAPLNNAEMARQIGALLTPRTTLTAETGDSWFNAVRMKLPHGARVELEMQWGHIGWSVPAAFGNALAAPERQHVLMVGDGSFQLTAQEVAQMIRHDLPVIIFLINNHGYTIEVMIHDGPYNNVKNWDYAGLMEVFNAGEGNGLGLRARTGGELAAAIEQARANRNGPTLIECTLDRDDCTQELVTWGKRVAAANARPPRAG
notes: likely strain PAl 5 (ATCC 49037 / DSM 5601)
- Km [5]: 1490 ± 430 µM
- kcat [5]: 8.25 ± 1.87 s⁻¹
- kcat/Km [5]: 5532 ± 39.4 M⁻¹ s⁻¹

B5: 3-HPDH 2CVZ, SEQ ID NO: 159 (Thermus thermophilus HB8) (protein)
chain: MEKVAFIGLGAMGYPMAGHLARRFPTLVWNRTFEKALRHQEEFGSEAVPLERVAEARVIFTCLPTTREVYEVAEALYPYLREGTYWVDATSGEPEASRRLAERLREKGVTYLDAPVSGGTSGAEAGTLTVMLGGPEEAVERVRPFLAYAKKVVHVGPVGAGHAVKAINNALLAVNLWAAGEGLLALVKQGVSAEKALEVINASSGRSNATENLIPQRVLTRAFPKTFALGLLVKDLGIAMGVLDGEKAPSPLLRLAREVYEMAKRELGPDADHVEALRLLERWGGVEIR
notes: PDB 2CVZ is from strain HB8 (ATCC 27634 / DSM 579)
- Km [6]: 420 µM

B6: 3-HPDH A4YI81, SEQ ID NO: 154 (Metallosphaera sedula DSM 5348) (protein)
chain: MTEKVSVVGAGVIGVGWATLFASKGYSVSLYTEKKETLDKGIEKLRNYVQVMKNNSQITEDVNTVISRVSPTTNLDEAVRGANFVIEAVIEDYDAKKKIFGYLDSVLDKEVILASSTSGLLITEVQKAMSKHPERAVIAHPWNPPHLLPLVEIVPGEKTSMEVVERTKSLMEKLDRIVVVLKKEIPGFIGNRLAFALFREAVYLVDEGVATVEDIDKVMTAAIGLRWAFMGPFLTYHLGGGEGGLEYFFNRGFGYGANEWMHTLAKYDKFPYTGVTKAIQQMKEYSFIKGKTFQEISKWRDEKLLKVYKLVWEK
notes: UniProt strain ATCC 51363 / DSM 5348 / TH2
- Km [7]: 650 µM
